Test results published in patent US20100120634A1 (Pfizer, published 2010).
Residue numbers refer to the chain shown, from its start.

B1: 3B4 scFv (scFv)
chain: DIQMTQSPSSLSASVGDRVTITCRASQDVGIYVNWFQQKPGKAPRRLIYRATNLADGVPSRFSGSRSGTDFTLTISSLQPEDFATYYCLEFDEHPLTFGGGTKVEIKDGGGSGGGGSGGGGSSEVQLVESGGGLVQPGGSLRLSCAASGFTFNNYWMTWVRQAPGKGLEWVASIDNSGDNTYYPDSVKDRFTISRDNAKNSLYLQMNSLRAEDTAVYYCARGGDIREGLRYWGQGTLVTVSS
B2: 3C6 scFv (scFv)
chain: B1 chain with R226V, E227V, R230D, Y231H
B3: 6C3 scFv (scFv)
chain: B1 chain with R226T, E227L, R230D, Y231V
B4: 6E3 scFv (scFv)
chain: B1 chain with E227V, G228S, R230D, Y231F
B5: 6D5 scFv (scFv)
chain: B1 chain with R226K, E227V, G228S, R230D, Y231Q
B6: 3B2 scFv (scFv)
chain: B1 chain with R226L, E227V, R230D
B7: 6C1 scFv (scFv)
chain: B1 chain with F91L, R226K, E227V, R230D, Y231N
B8: 6B6 scFv (scFv)
chain: B1 chain with R226I, E227I, G228S, R230D, Y231W
B9: 3D5 scFv (scFv)
chain: B1 chain with R226K, E227V, R230D, Y231L
B10: 6A12 scFv (scFv, from a related filing, part only)
scFv: B1 chain with E90Q, F91Y, E93A, R226T, E227T, L229F, R230D
B11: 3B7 scFv (scFv, from a related filing, part only)
scFv: B1 chain with E90Q, E93S, R226T, E227T, L229F, R230D
B12: 3G8 scFv (scFv, from a related filing, part only)
scFv: B1 chain with E90Q, F91Y, E93A, R226T, E227T, L229F, R230D
B13: 6C11 scFv (scFv, from a related filing, part only)
scFv: B1 chain with E90Q, F91Y, E93A, R226T, E227T, L229F, R230D

Each binder was assayed against T1, biotin labeled hRAGE-Fc (human, UniProt Q15109 24-344, biotin-labeled (site not stated)) (assay: HTRF competition; scFv against Eu-cryptate XT-M4 for biotin-hRAGE-Fc).
T1 construct: used biotinylated in HTRF and coated in ELISA; also called Biotin-labeled RAGE-Fc; biotinylated-RAGE-Fc; not shown: Fc part not described
T1 sequence (Q15109 24-344): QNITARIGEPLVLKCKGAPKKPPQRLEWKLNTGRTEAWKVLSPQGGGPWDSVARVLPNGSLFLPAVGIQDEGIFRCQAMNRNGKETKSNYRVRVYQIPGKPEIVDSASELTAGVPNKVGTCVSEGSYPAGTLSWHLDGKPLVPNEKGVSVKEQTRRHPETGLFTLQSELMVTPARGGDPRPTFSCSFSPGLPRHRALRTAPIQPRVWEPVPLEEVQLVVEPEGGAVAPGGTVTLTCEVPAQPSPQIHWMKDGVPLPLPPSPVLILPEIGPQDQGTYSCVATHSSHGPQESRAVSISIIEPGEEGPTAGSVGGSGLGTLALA

Row | IC50 | Binder
1 | 1.3 nM | B1
2 | 1.25 nM | B2
3 | 1.52 nM | B3
4 | 1.74 nM | B4
5 | 1.45 nM | B5
6 | 0.91 nM | B6
7 | 4.44 nM | B7
8 | 0.64 nM | B8
9 | 2.99 nM | B9

Each binder was assayed against biotin labeled hRAGE-Fc (human) (UniProt Q15109) in the same assay as above.
Chain of biotin labeled hRAGE-Fc (human) (Q15109 24-344): as above

Row | IC50 | Binder
10 | 8.27 nM | B10
11 | 7.35 nM | B11
12 | 8.08 nM | B12
13 | 9.03 nM | B13
